{"source": "paper PMC2912147", "about": "(Neuron, 2008)", "binders": {"B1": {"name": "GFP-p25 (full length p25, overexpressed in HEK293T cells) (domain or fragment)", "chain": "not shown"}}, "biological_target": "Flag-tagged full length HDAC1 (UniProt Q13547 1-482)", "sequence (Q13547 whole entry)": "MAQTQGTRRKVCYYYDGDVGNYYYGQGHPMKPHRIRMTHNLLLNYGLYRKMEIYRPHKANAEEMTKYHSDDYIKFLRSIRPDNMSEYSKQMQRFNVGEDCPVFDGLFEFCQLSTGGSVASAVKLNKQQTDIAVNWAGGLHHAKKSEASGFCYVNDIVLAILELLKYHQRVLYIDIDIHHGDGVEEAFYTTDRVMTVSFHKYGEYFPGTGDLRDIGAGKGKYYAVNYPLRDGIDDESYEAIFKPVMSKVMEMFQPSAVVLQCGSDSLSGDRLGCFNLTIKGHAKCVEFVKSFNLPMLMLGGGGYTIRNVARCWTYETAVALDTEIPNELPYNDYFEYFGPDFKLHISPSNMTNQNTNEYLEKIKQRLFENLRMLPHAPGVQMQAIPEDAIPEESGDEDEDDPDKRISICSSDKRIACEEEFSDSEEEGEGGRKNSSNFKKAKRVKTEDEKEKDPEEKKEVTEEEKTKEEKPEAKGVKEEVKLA", "experiment": "co-IP"}
{"binder": "B1", "values": [{"measurement": "fold interaction against p35", "value": "> 12", "unit": "fold"}]}
